Literature values in patent US10385327B2, “Enhanced E. coli for the production of fatty acids and method of producing the same” (University of Puerto Rico, priority 2012, dated 2019).

Assays:
[1] = literature value for FAS dehydratase construct
[2] = tested on: E. coli BL21-DE3-CodonPlus (RIL) cells; conditions: previous work by others

B1: FAS 1-1168 construct: Fatty Acid Synthase construct of Pasta et al., 2007, literature comparator for dehydratase specific activity (protein, UniProt P49327 1-1168, looked up, fragment)
chain: MEEVVIAGMSGKLPESENLQEFWDNLIGGVDMVTDDDRRWKAGLYGLPRRSGKLKDLSRFDASFFGVHPKQAHTMDPQLRLLLEVTYEAIVDGGINPDSLRGTHTGVWVGVSGSETSEALSRDPETLVGYSMVGCQRAMMANRLSFFFDFRGPSIALDTACSSSLMALQNAYQAIHSGQCPAAIVGGINVLLKPNTSVQFLRLGMLSPEGTCKAFDTAGNGYCRSEGVVAVLLTKKSLARRVYATILNAGTNTDGFKEQGVTFPSGDIQEQLIRSLYQSAGVAPESFEYIEAHGTGTKVGDPQELNGITRALCATRQEPLLIGSTKSNMGHPEPASGLAALAKVLLSLEHGLWAPNLHFHSPNPEIPALLDGRLQVVDQPLPVRGGNVGINSFGFGGSNVHIILRPNTQPPPAPAPHATLPRLLRASGRTPEAVQKLLEQGLRHSQDLAFLSMLNDIAAVPATAMPFRGYAVLGGERGGPEVQQVPAGERPLWFICSGMGTQWRGMGLSLMRLDRFRDSILRSDEAVKPFGLKVSQLLLSTDESTFDDIVHSFVSLTAIQIGLIDLLSCMGLRPDGIVGHSLGEVACGYADGCLSQEEAVLAAYWRGQCIKEAHLPPGAMAAVGLSWEECKQRCPPGVVPACHNSKDTVTISGPQAPVFEFVEQLRKEGVFAKEVRTGGMAFHSYFMEAIAPPLLQELKKVIREPKPRSARWLSTSIPEAQWHSSLARTSSAEYNVNNLVSPVLFQEALWHVPEHAVVLEIAPHALLQAVLKRGLKPSCTIIPLMKKDHRDNLEFFLAGIGRLHLSGIDANPNALFPPVEFPAPRGTPLISPLIKWDHSLAWDVPAAEDFPNGSGSPSAAIYNIDTSSESPDHYLVDHTLDGRVLFPATGYLSIVWKTLARALGLGVEQLPVVFEDVVLHQATILPKTGTVSLEVRLLEASRAFEVSENGNLVVSGKVYQWDDPDPRLFDHPESPTPNPTEPLFLAQAEVYKELRLRGYDYGPHFQGILEASLEGDSGRLLWKDNWVSFMDTMLQMSILGSAKHGLYLPTRVTAIHIDPATHRQKLYTLQDKAQVADVVVSRWLRVTVAGGVHISGLHTESAPRRQQEQQVPILEKFCFTPHTEEGCLSERAALQEELQLCKGLVQALQTKVTQQGLKMVVPGLDGAQ
specific activity reported (Pasta et al., 2007) [1]: 204 mol product/(min*mol enzyme)

B2: E. coli FabA dehydratase: DH enzyme involved in fatty acid biosynthesis in E. coli (protein, UniProt P0A6Q3 2-172, looked up)
3-hydroxydecanoyl-[acyl-carrie …: VDKRESYTKEDLLASGRGELFGAKGPQLPAPNMLMMDRVVKMTETGGNFDKGYVEAELDINPDLWFFGCHFIGDPVMPGCLGLDAMWQLVGFYLGWLGGEGKGRALGVGEVKFTGQVLPTAKKVTYRIHFKRIVNRRLIMGLADGEVLVDGRLIYTASDLKVGLFQDTSAF
effect of overexpression on production of fatty acids in E. coli [2]: does not increase the production of fatty acids
